B1: Strep-RibH (enzyme, Bacillus subtilis, UniProt P11998 1-154, looked up)
chain: MNIIQGNLVGTGLKIGIVVGRFNDFITSKLLSGAEDALLRHGVDTNDIDVAWVPGAFEIPFAAKKMAETKKYDAIITLGTVIRGATTHYDYVCNEAAKGIAQAANTTGVPVIFGIVTTENIEQAIERAGTKAGNKGVDCAVSAIEMANLNRSFE
notes: RibH, lumazine synthase of Bacillus subtilis; printed mass of Strep-RibH 17.9 kDa; Cloning and purification are described in the Supplementary Data; The printed mass fits the whole protein with its tag (surmised); also called wt-like Strep-RibH; source: E. coli BL21 (DE3) Star, purified (Strep-Tactin, SEC); also coproduced with His6-RibE; not shown: Strep tag, N-terminal, kept; copies: 60
B2: Strep-RibH^K29R (enzyme, Bacillus subtilis, UniProt P11998 1-154, looked up)
chain: MNIIQGNLVGTGLKIGIVVGRFNDFITSRLLSGAEDALLRHGVDTNDIDVAWVPGAFEIPFAAKKMAETKKYDAIITLGTVIRGATTHYDYVCNEAAKGIAQAANTTGVPVIFGIVTTENIEQAIERAGTKAGNKGVDCAVSAIEMANLNRSFE
notes: RibH, lumazine synthase of Bacillus subtilis, with K29R; printed mass 17.9 kDa; Cloning and purification are described in the Supplementary Data; the tag is likely N-terminal as in Strep-RibH (surmised); source: E. coli BL21 (DE3) Star, purified (Strep-Tactin, SEC); also coproduced with His6-RibE; copies: 60
B3: Strep-RibH^K29E (enzyme, Bacillus subtilis, UniProt P11998 1-154, looked up)
chain: MNIIQGNLVGTGLKIGIVVGRFNDFITSELLSGAEDALLRHGVDTNDIDVAWVPGAFEIPFAAKKMAETKKYDAIITLGTVIRGATTHYDYVCNEAAKGIAQAANTTGVPVIFGIVTTENIEQAIERAGTKAGNKGVDCAVSAIEMANLNRSFE
notes: RibH, lumazine synthase of Bacillus subtilis, with K29E; printed mass 17.9 kDa; Cloning and purification are described in the Supplementary Data; source: E. coli BL21 (DE3) Star, purified (Strep-Tactin, SEC); also coproduced with His6-RibE; not shown: Strep tag, N-terminal, kept; copies: 60

Target: the molecule itself
Test: pull-down + SEC; coproduced in E. coli BL21 Star, purified by Strep-Tactin affinity chromatography followed by SEC; pooled 60-mer peak (~1 MDa) analysed by SDS-PAGE

Stoichiometry N, 60:
B1
B2
B3
